Literature values, collected in paper PMC11054419.

Legend:
TGF-β1 (Homo sapiens) = TGF-β1 (Homo sapiens) (UniProt P01137)
TGF-β2 (Homo sapiens) = TGF-β2 (Homo sapiens) (UniProt P61812)
TGF-β3 (Homo sapiens) = TGF-β3 (Homo sapiens) (UniProt P10600)

Measured: Kd

TβRIII (betaglycan), sequence (Q03167 21-787): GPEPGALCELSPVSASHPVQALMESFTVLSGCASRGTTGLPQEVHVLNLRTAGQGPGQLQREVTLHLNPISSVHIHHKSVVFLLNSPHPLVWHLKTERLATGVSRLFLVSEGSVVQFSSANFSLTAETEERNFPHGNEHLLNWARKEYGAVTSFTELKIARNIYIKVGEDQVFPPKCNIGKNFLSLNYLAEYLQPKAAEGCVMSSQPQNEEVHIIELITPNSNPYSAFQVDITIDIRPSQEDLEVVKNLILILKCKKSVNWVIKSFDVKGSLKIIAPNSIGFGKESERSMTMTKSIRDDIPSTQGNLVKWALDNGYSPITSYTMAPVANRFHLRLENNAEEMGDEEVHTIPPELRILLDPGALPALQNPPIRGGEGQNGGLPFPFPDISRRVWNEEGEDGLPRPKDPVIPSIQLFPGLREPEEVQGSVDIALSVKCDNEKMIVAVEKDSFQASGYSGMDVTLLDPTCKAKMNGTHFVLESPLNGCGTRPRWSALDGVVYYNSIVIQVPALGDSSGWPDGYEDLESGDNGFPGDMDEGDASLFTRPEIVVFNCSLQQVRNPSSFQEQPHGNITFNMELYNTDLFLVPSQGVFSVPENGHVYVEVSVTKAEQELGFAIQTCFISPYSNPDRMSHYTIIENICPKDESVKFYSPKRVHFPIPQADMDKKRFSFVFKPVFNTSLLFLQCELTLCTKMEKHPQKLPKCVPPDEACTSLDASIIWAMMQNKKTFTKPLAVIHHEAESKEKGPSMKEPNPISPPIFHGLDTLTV
TGF-β3 (Homo sapiens), sequence (P10600 301-412): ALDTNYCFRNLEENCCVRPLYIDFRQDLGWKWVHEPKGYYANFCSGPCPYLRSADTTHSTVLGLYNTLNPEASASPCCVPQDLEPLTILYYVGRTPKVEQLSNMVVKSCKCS
TGF-β1 (Homo sapiens), sequence (P01137 279-390): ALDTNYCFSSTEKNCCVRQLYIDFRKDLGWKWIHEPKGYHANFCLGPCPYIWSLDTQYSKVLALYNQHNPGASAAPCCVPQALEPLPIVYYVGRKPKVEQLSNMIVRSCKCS
TGF-β2 (Homo sapiens), sequence (P61812 303-414): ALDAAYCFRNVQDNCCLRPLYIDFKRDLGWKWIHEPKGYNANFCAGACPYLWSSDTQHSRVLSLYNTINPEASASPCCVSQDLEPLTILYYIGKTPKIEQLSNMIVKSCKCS

TβRIII (betaglycan) (from UniProt Q03167)
0.1 nM: all assays above
